Data published in US8501695B2, “Tissue kallikrein for the treatment of diseases associated with amyloid protein” (DiaMedica, Inc., priority 2007, dated 2013).
Where “and” joins values, the source holds several entries; their conditions need not be identical. Identical values can stand only once.

Experiment: Pharmacokinetic study of intranasal tissue kallikrein (125I-KLK1 tissue concentrations by gamma counting)
Format: in vivo
Details: rat, 30 min. end point
Description: The purpose of this study was to quantify the amount of tissue kallikrein (KLK1) reaching the central nervous system and peripheral tissues after intranasal administration to anesthetized rats. At 30 min after KLK1 administration, animals were transcardially perfused with ice-cold saline followed by paraformaldehyde fixative and tissues were dissected. The amount of radiolabeled KLK1 in each tissue sample was quantified by gamma counting and tissue concentrations were calculated using tissue weight and gamma counting of standards of the dosing solutions
Adult male Sprague Dawley rats (n=10, mean 335.4 g±4.57 g SE) were used for this study. Animals were group housed in the Regions Hospital Animal Care Facility with free access to food and water. Animals were kept on a 12 h light cycle. All experimental procedures were approved by the Animal Care and Use Committee at Regions Hospital under IACUC protocol number 08-022.
Tissue kallikrein was sent to Perkin-Elmer for ^125I-labelling (Quote NEX-084, lot C1541583). Non-labeled KLK1 from Sigma (cat#K3627-1KU, lot 018K1441) was also used. Non-labeled KLK1 was dissolved in 1×PBS (10×PBS, Sigma, cat #P5493, lot 027K8405 diluted in sterile water). The average dose was 48.1 μL, 75 μCi, and 2.6 mg.
• a. Prior to anesthesia, each rat was weighed. • b. An anesthesia cocktail was prepared and full, half, and quarter anesthesia doses were calculated according to the animal's weight with a full dose containing 30 mg/kg ketamine, 6 mg/kg xylazine, and 1 mg/kg acepromazine. • c. A 1-cc syringe fitted with a 25 G or 27 G, ½ inch needle was assembled and a full dose was drawn into the syringe for injection. • d. Rats were restrained in a towel as follows. Rats were placed ventral side down in the middle of a hand towel. The towel was then wrapped around the head and shoulders to restrain. Wrapped animals remained ventral side down while the left hind leg was located. • e. The left hind leg was drawn to the side and the needle was inserted just beneath the skin (subcutaneous) above the thigh. After ensuring that the needle was placed subcutaneously (and not intramuscularly), full doses were injected. Rats were placed in holding cages and the injection time noted. Animals should be under within 5 min. • f. Anesthesia was monitored throughout the procedures by assessing reflexes using pinching of the hind paw or tail. If a reflex was present, a half or quarter dose booster was administered as necessary. • g. During drug administration, animals received a half dose booster roughly 20-25 min after initial dose. Intranasal Delivery of ^125I-KLK1 • a. Anesthetized rats were placed on their backs on a heating pad in a metal surgical tray. The heating pad was connected to a thermostat and was automatically regulated to maintain a 37° C. temperature based on continuous measurement from a rectal probe. • b. A 2″×2″ gauze pad was rolled tightly into a pillow, taped together, and under the neck to maintain a correct neck position horizontal with the counter. • c. A lead impregnated shield was placed between the surgical tray and the experimenter for protection against radiation. The dose solution, pipette, pipette tips, and waste receptacle were arranged behind the shield for easy access. • d. A 6 μL drop was loaded into the pipette behind the shield. • e. A cotton swab covered in parafilm was used to occlude one naris completely (the flat part of the swab was pushed gently against the naris to prevent airflow), while the 6 μL drop was expelled slowly from the pipette (held at a 45° angle from the rat's midline), forming a drop on the pipette tip. The drop was lowered onto the open naris to be inhaled. • f. After two minutes, the alternate naris was occluded and a 6 μL drop was administered in the same fashion. • g. A drop was administered as described above every two minutes to alternating nares until a total of 8 drops was delivered (4 to each naris) over 14 min. • h. […]

[1] = individual animal, listed as kallikrien

B1: tissue kallikrein: serine protease that cleaves kininogen into kallidin; polypeptide SEQ ID NO:1 (Sus scrofa kallikrein 1), KLK1 from Sigma (protein, listed as Sus scrofa)
chain: MWSLVMRLALSLAGTGAAPPIQSRIIGGRECEKDSHPWQVAIYHYSSFQCGGVLVDPKWVLTAAHCKNDNYQVWLGRHNLFENEVTAQFFGVTADFPHPGFNLSLLKNHTKADGKDYSHDLMLLRLQSPAKITDAVKVLELPTQEPELGSTCQASGWGSIEPGPDDFEFPDEIQCVELTLLQNTFCADAHPDKVTESMLCAGYLPGGKDTCMGDSGGPLICNGMWQGITSWGHTPCGSANKPSIYTKLIFYLDWINDTITENP
modifications: 125I label in one form
In the case of B1, the “concentration in Ventral Dura” value (Avg, outliers removed) is reported as 143.0 nM, the “concentration in Amygdala” value [1] is reported as 13.5 nM and 10.9 nM and 14.16 nM and 18.3 nM and 12.1 nM and 25.4 nM and 15.2 nM and 13.9 nM and 24.6 nM and 13.7 nM and the “concentration in Anterior Olfactory Nucleus” value [1] is reported as 23.1 nM and 15.1 nM and 24.0 nM and 20.5 nM and 19.3 nM and 44.8 nM and 29.2 nM and 25.2 nM and 45.6 nM and 21.2 nM. The “concentration in Anterior Trigeminal Nerve” value [1] was 233.5 nM and 75.1 nM and 83.9 nM and 83.5 nM and 108.3 nM and 68.8 nM and 111.7 nM and 139.2 nM and 77.5 nM, the “concentration in Axillary Nodes (2)” value [1] was 44.6 nM and 38.9 nM and 58.8 nM and 44.4 nM and 43.9 nM and 48.8 nM and 28.6 nM and 33.5 nM and 47.7 nM and 34.0 nM and the “concentration in Blood Sample” value [1] was 292.4 nM and 272.4 nM and 327.7 nM and 288.9 nM and 275.6 nM and 231.1 nM and 233.0 nM and 251.9 nM and 242.4 nM and 268.4 nM. For the same molecule, the “concentration in Carotid Artery” value [1] was 127.5 nM and 55.9 nM and 111.2 nM and 103.2 nM and 138.7 nM and 175.1 nM and 84.9 nM and 115.6 nM and 108.2 nM, the “concentration in Cerebellum” value [1] was 9.3 nM and 10.6 nM and 10.06 nM and 13.2 nM and 11.2 nM and 12.2 nM and 8.6 nM and 14.7 nM and 7.8 nM and the “concentration in Cervical Nodes (2)” value [1] was 214.4 nM and 3.1 nM and 116.3 nM and 72.1 nM and 100.5 nM and 119.9 nM and 103.7 nM and 196.0 nM and 174.6 nM. For the same molecule, the “concentration in Circle of Willis & Basilar Artery” value [1] was 190.7 nM and 56.9 nM and 44.4 nM and 133.6 nM and 87.4 nM and 178.2 nM and 115.5 nM and 44.1 nM and 134.1 nM and 48.3 nM, the “concentration in Dorsal Dura” value [1] was 116.0 nM and 92.5 nM and 118.2 nM and 156.9 nM and 116.8 nM and 131.0 nM and 132.9 nM and 242.5 nM and 89.5 nM and the “concentration in Esophagus” value [1] was 118.0 nM and 66.9 nM and 109.6 nM and 87.7 nM and 68.1 nM and 40.9 nM and 65.1 nM and 85.4 nM and 128.1 nM and 82.4 nM. For the same molecule, the “concentration in Extra Cortex” value [1] was 10.3 nM and 11.3 nM and 12.40 nM and 13.3 nM and 13.8 nM and 17.2 nM and 12.8 nM and 16.6 nM and 9.8 nM, the “concentration in Extra Slice #1” value [1] was 17.1 nM and 16.2 nM and 19.4 nM and 16.6 nM and 16.9 nM and 43.2 nM and 31.1 nM and 29.6 nM and 22.7 nM and the “concentration in Extra Slice #2” value [1] was 9.2 nM and 11.0 nM and 12.33 nM and 17.0 nM and 11.7 nM and 28.5 nM and 17.6 nM and 17.3 nM and 27.0 nM and 15.6 nM. For the same molecule, the “concentration in Extra Slice #3” value [1] was 8.8 nM and 9.6 nM and 11.43 nM and 10.7 nM and 9.9 nM and 23.3 nM and 17.2 nM and 13.6 nM and 21.0 nM and 13.8 nM, the “concentration in Extra Slice #4” value [1] was 7.5 nM and 8.6 nM and 9.4 nM and 9.9 nM and 18.4 nM and 14.7 nM and 10.5 nM and 17.0 nM and 11.8 nM and the “concentration in Extra Slice #5” value [1] was 7.7 nM and 7.6 nM and 10.7 nM and 9.2 nM and 10.8 nM and 19.2 nM and 18.6 nM and 9.7 nM and 14.8 nM and 9.9 nM. The “concentration in Extra Slice #6” value [1] was 7.9 nM and 8.1 nM and 12.1 nM and 10.5 nM and 12.2 nM and 16.7 nM and 10.4 nM and 14.8 nM and 9.5 nM, the “concentration in Frontal Cortex” value [1] was 12.0 nM and 16.1 nM and 15.8 nM and 16.9 nM and 17.4 nM and 45.7 nM and 27.7 nM and 26.8 nM and 38.9 nM and 22.0 nM and the “concentration in Heart” value [1] was 17.4 nM and 16.0 nM and 21.9 nM and 30.1 nM and 12.7 nM and 31.4 nM and 13.7 nM and 23.2 nM and 22.8 nM and 37.0 nM. For the same molecule, the “concentration in Hippocampus” value [1] was 7.0 nM (2×) and 11.6 nM and 10.6 nM and 8.8 nM and 16.4 nM and 13.4 nM and 13.7 nM and 8.2 nM, the “concentration in Hypothalamus” value [1] was 17.1 nM and 11.9 nM and 21.1 nM and 15.8 nM and 17.4 nM and 37.6 nM and 28.8 nM and 15.7 nM and 38.9 nM and 17.3 nM and the “concentration in Kidney (L, tip)” value [1] was 179.0 nM and 213.3 nM and 187.5 nM and 115.0 nM and 24.6 nM and 35.5 nM and 103.9 nM and 240.4 nM and 212.2 nM and 36.9 nM. For the same molecule, the “concentration in Liver (R, superficial lobe)” value [1] was 18.7 nM and 37.1 nM and 25.7 nM and 26.6 nM and 40.2 nM and 26.1 nM and 16.4 nM and 16.1 nM and 21.8 nM and 28.8 nM, the “concentration in Lower Cervical Spinal Cord” value [1] was 5.3 nM and 6.6 nM and 7.3 nM (2×) and 5.2 nM and 4.7 nM and 7.0 nM and 6.5 nM and 10.1 nM and 10.9 nM and the “concentration in Lumbar Spinal Cord” value [1] was 5.1 nM and 4.9 nM and 5.8 nM and 4.7 nM and 5.0 nM and 5.35 nM and 4.2 nM (2×) and 5.6 nM and 4.6 nM.
